The values below come from the domain aggregation screens of Martell et al. (2025).

A short description of the data set: soluble fraction after stress (log2 fold change); higher = more stays soluble; pooled small domains, quantitative proteomics. The following applies: stress: pH 4. The essentials: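 Following acid stress at pH 4, the amount of each small protein domain still soluble was measured in pooled custom libraries by high-throughput quantitative proteomics. Its fold change, on a log2 scale, is higher when more of the domain stayed soluble. This fold change is taken as a measure of aggregation propensity.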

“HMPENESPEEKHARFRRFAEGLMARLDENESVRDILPELKVWLDDRELDRDDQRLARNLMLTAGKRE”: the “soluble fraction (log2)” value is -0.0664.
Then “HMPEPLTARETEVLRLLSGGYSNREIAAAMFLAEGTIKNHVSAVLLKLGVRDRTRAVLRGLELGLIQ”, with -1.4; and “HMPEPPRVGETLAALRQDRALSLDELSRQAGVSKSMLSQIERNQANPTVAVVWRLANALGVPMAELLGA”, with -0.192.
For the sequence “HMPGDIRKAAILLMSLPREQAAQVLARLDPKQVEAVTIEIARLGTVTPDEQEQALKEFSQANPA”, the “soluble fraction (log2)” value was -0.141.
“HMPGIDDAAVEHAERVLAQHIGPMARLLVRRTVPRAANLFDLHRRLGALIPESEPRTAFLSAVVT”: the “soluble fraction (log2)” value came out at 0.0209.
Then “HMPGLSQAEAQSLLIAYLAQQGRTLELIPLGQSGDVWRFSGRESDGTVVSFFMVSRTDGTISEVPVPP”, with -0.992; and “HMPGRLSRREVEVIELTARGLPAAEMAVRLGISANTIEFHRRRIMQKLGVANAAEMVRRATELGW”, with -0.905.
As for “HMPGRVITVMVNGKRVDLPFREEPYIFVDLFRYMDFDVERARGRIQLAINGKKAGYTDIIREGDSIEI”, the figure is -1.02.
As for “HMPGTAAQARQLKAWLKENGEKPGAALPALQKAQEIYGYVPREVQQLIADALHKPLTEIYGVSTFYSQFNL”, the “soluble fraction (log2)” value was -0.326.
For the sequence “HMPGTPADQVAELQTKVGTETKTGDMITQDDVKLLQTALDPLAKMNDRIQAAKILESKGIVTSDGNLRT”, the “soluble fraction (log2)” value is 0.0934.
As for “HMPIGENIKRLRIMHGLSQKELAQIAGVSDKAVSTWENGTKEPRMGAVQKITGYFGLKKSNLIEDNGL”, the figure is 0.0537; as for “HMPIMDSDDKYEALGIPQEWIAVVKKAGYQTVEALKAVENPNKLHQELSVMNKKEKLGLAGLTPEMVKAWL”, -0.301; as for “HMPINPKVKQIYDTLKDGGADVGSEKEFNDYFFAKGKDGYNNRKEVFNTLREGGADAGKSYEEFAGWLGL”, 0.206.
With “HMPIPIESEISRSPGQSIYAFVQQHYGRSGRSPADMRALVGLILRLNRQIRTPLLIPFGLVVVRPT”, the “soluble fraction (log2)” value is -0.253.
Regarding “HMPIRVGDAFESLAGVFPDEYNKALRKSTKKPVFFVPVKVEAGSGALRQKGKITFIVKDGRIDAIQIAL”, the “soluble fraction (log2)” value was -0.514.
As for “HMPISQGATVKHNANMRKGASTKYKVTGVLQEGEEVKILSQSNGWYKIQNSDNEKGWTYNTHINASDK”, the figure is -0.0274; as for “HMPKHFIDFSEGEVVSITDGPFKGFDGAISEIDNQKGKVKVMVSMFGRDTSVELDALQVKKV”, -0.364.
Then “HMPKITTIHIDPEKISKVIGPGGKTVKKIIEETGAKIDIEDTGKIFIAAVNTEAANKAIDMINGIVA”, with -0.0168; and “HMPKLPIIYVLDGHVNKNALTTSGKNKVWIEHELKKHHINSIKDVLIAMTDTEGKFYYQLYD”, with -0.0791.
Then “HMPKLSNNHMAVWQAIRSRTAKGEPSTRAVIRDDLKAAGMDTSKHFSRWLTKLIDLGMVVKDGENLSIR”, with 0.219; and “HMPKMISPAQIKAIGAKTNNIAKASGVEQAQVYQSAVAHLGINNKSTKELTSQEASKVIEYLSTL”, with 0.158; and “HMPKPMKATKITLQQEPRIRVDFTYDPLKVQQIKTISGARWSKSLKAWHIPYTKEAFNQLKKLFPNVEIEV”, with 0.22.
For “HMPKSVRQSFVYSPMYRDVEYLADFLRNNNKDDSSVSASGDKLVYYGTADEIARVKSVLKGVDV”, the “soluble fraction (log2)” value is -0.51.
As for “HMPLIPIAIELARHALPSLIGAIAGDKSEKVAKEVVDAALKTTGKTTPDEALHALQADPQLAHEYRLSLL”, the figure is -0.466; as for “HMPLKLIDVYLGRHGKKRYDVFKETGLSQQTLASANGKPAAALTGRILQAIGRTVGETPGRVLDEMLMIEQ”, 0.0887; as for “HMPLLADLPNLLRKVLKQHPGRVVDVDLERGRQGREIYHVRVLQENGQVRGLFVDASTGELVS”, 0.0524.
Regarding “HMPLQLPEPMAELARNGETARLAEALKQGLDIDLRDGKGNTLLMIAAYQGRAETVAMLLKAGA”, the “soluble fraction (log2)” value is -1.42.
Then “HMPLSLESVSEGGRNDTAARIAGYLIAKGLNVDFARFFLQSWNTKNKPPLDDTEIDTIVNSIMKTHERKNQ”, with -0.476; and “HMPLTPATADAGRFVKQDRKYIRLLAKRYNFTHGDIKSEIDRVSAVLSSNGIDRVPLFLYKEYLEQYLAG”, with -0.924.
Then “HMPLTRSDVKRIQLWLMAHGYDIGSPDGVFGDKSNRAANAFLSQQGRSLETVTLGKLYDILEAN”, with -0.941.
“HMPMINLYQRLNLPPTASRAEIEAALAQYRSELSTAEIRGVQEWLLVNEVRHRYDAKLRQEQPSFFI”: the “soluble fraction (log2)” value is -0.427.
As for “HMPMTLGENIARLRTQKDWSQGDLADALGISRQSISKWETDTSIPELEKLIKLSELFGVTLDQLVRGE”, the figure is -0.615; as for “HMPNILLSVKDASVAISVSSKMVRLLIASGRLKAVNLGKRMTRISLQELTDFAQRQGGNVVLP”, -0.514.
For the sequence “HMPNLAAAIGARVTIRLREASGGFRDIVGTLQRFGDGVNELLNSKGQIISFSEDEIAIWREIK”, the “soluble fraction (log2)” value was -0.326.
Then “HMPNQIKQIAVNTASVSDIATIPGISFDFAKEIWEFRILRQKIGSLSELQKIEGMTASKYALIELYLHI”, with -0.41.
